According to the RNAGym collection of RNA variant scans (doi:10.1101/gr.219683.116):

B1: mRNA-splicing (parent)
chain: AGUUGCUGCUGGGAGCUCCAGCACAGUGAAAUGGACAGAAGGGCAGAGCAA

Variants of: B1
Assay: exon inclusion enrichment index; higher = more inclusion; WT1 exon 5 minigene, HEK293

Going from AGUUGACGACGGGAGCUCCAGCACAGUGAAAUGCCCAGAAGGGCAGAGCAA [C6A U7C C9A U10C G34C A35C] to AGUUGACGACGGGAGCUCCAGCACAGUGAAAUGCUCAGAAGGGCAGAGCAA [C6A U7C C9A U10C G34C A35U], the “exon inclusion enrichment index” value rises from 0.445 to 0.98.

Going from AGUUGACGACGGGAGCUCCAGCACAGUGAAAUGCGCAGAAGGGCAGAGCAA [C6A U7C C9A U10C G34C A35G] to AGUUGACGACGGGAGCUCCAGCACAAUGAAAUGGACAGAAGGGCAGAGCAA [C6A U7C C9A U10C G26A], the “exon inclusion enrichment index” value rises from 2.67 to 3.92.

First: AGUUGACGACGGGAGCUCCAGCACACUGAAAUGGACAGAAGGGCAGAGCAA [C6A U7C C9A U10C G26C]
Second: AGUUGACGACGGGAGCUCCAGCACAUUGAAAUGGACAGAAGGGCAGAGCAA [C6A U7C C9A U10C G26U]
The “exon inclusion enrichment index” value of the first is higher: 3.46 for the first, 3.34 for the second.

First: AGUUGACGACGGGAGCUCCAGCACAGUGAAAUGUCCAGAAGGGCAGAGCAA [C6A U7C C9A U10C G34U A35C]
Second: AGUUGACGACGGGAGCUCCAGCACAGUGAAAUGUGCAGAAGGGCAGAGCAA [C6A U7C C9A U10C G34U A35G]
The “exon inclusion enrichment index” value of the first is higher: 1.5 for the first, 1.29 for the second.

Compared with AGUUGACGACGGGAGCUCCAGCACAGUGAAAUGUACAGAAGGGCAGAGCAA [C6A U7C C9A U10C G34U], AGUUGACGACGGGAGCUCCAGCACAGUGAAAUGCACAGAAGGGCAGAGCAA [C6A U7C C9A U10C G34C] is higher in “exon inclusion enrichment index” value: 1.52 for the first, 1.79 for the second.

First: AGUUGACGACGGGAGCUCCAGCACAGUGAAAUGAACAGAAGGGCAGAGCAA [C6A U7C C9A U10C G34A]
Second: AGUUGACGACGGGAGCUCCAGCACAGUGAAAUUCACAGAAGGGCAGAGCAA [C6A U7C C9A U10C G33U G34C]
The “exon inclusion enrichment index” value of the first is higher: 2.27 for the first, 1.4 for the second.

Going from AGUUGACGACGGGAGCUCCAGCACAGUGAAAUUUACAGAAGGGCAGAGCAA [C6A U7C C9A U10C G33U G34U] to AGUUGACGACGGGAGCUCCAGCACAGUGAAAUUAACAGAAGGGCAGAGCAA [C6A U7C C9A U10C G33U G34A], the “exon inclusion enrichment index” value falls from 1.05 to 0.907.

Compared with AGUUGACGACGGGAGCUCCAGCACAUGGAAAUGGACAGAAGGGCAGAGCAA [C6A U7C C9A U10C G26U U27G], AGUUGACGACGGGAGCUCCAGCACAUCGAAAUGGACAGAAGGGCAGAGCAA [C6A U7C C9A U10C G26U U27C] is lower in “exon inclusion enrichment index” value: 4.12 for the first, 4 for the second.

Compared with AGUUGACGACGGGAGCUCCAGCACAUAGAAAUGGACAGAAGGGCAGAGCAA [C6A U7C C9A U10C G26U U27A], AGUUGACGACGGGAGCUCCAGCACAGUUCAAUGGACAGAAGGGCAGAGCAA [C6A U7C C9A U10C G28U A29C] is higher in “exon inclusion enrichment index” value: 2.38 for the first, 2.72 for the second.

Going from AGUUGACGACGGGAGCUCCAGCACAGUUUAAUGGACAGAAGGGCAGAGCAA [C6A U7C C9A U10C G28U A29U] to AGUUGACGACGGGAGCUCCAGCACAGUUGAAUGGACAGAAGGGCAGAGCAA [C6A U7C C9A U10C G28U A29G], the “exon inclusion enrichment index” value rises from 1.26 to 3.18.

First: AGUUGACGACGGGAGCUCCAGCACAGUGAAAUGAGCAGAAGGGCAGAGCAA [C6A U7C C9A U10C G34A A35G]
Second: AGUUGACGACGGGAGCUCCAGCACAGUGAAAUGACCAGAAGGGCAGAGCAA [C6A U7C C9A U10C G34A A35C]
The “exon inclusion enrichment index” value of the first is lower: 2.05 for the first, 2.52 for the second.

Compared with AGUUGACGACGGGAGCUCCAGCACAGUGAAAUGAUCAGAAGGGCAGAGCAA [C6A U7C C9A U10C G34A A35U], AGUUGACGACGGGAGCUCCAUCACAGUGAAAUGGACAGAAGGGCAGAGCAA [C6A U7C C9A U10C G21U] is higher in “exon inclusion enrichment index” value: 1.68 for the first, 3.09 for the second.

Going from AGUUGACGACGGGAGCUCCAGCACAGUCAAAUGGACAGAAGGGCAGAGCAA [C6A U7C C9A U10C G28C] to AGUUGACGACGGGAGCUCCAGCACAGUAAAAUGGACAGAAGGGCAGAGCAA [C6A U7C C9A U10C G28A], the “exon inclusion enrichment index” value falls from 3.06 to 1.59.

First: AGUUGACGACGGGAGCUCCAGCACAGUUAAAUGGACAGAAGGGCAGAGCAA [C6A U7C C9A U10C G28U]
Second: AGUUGACGACGGGAGCUCCAGCACAGUGAAAUCCACAGAAGGGCAGAGCAA [C6A U7C C9A U10C G33C G34C]
The “exon inclusion enrichment index” value of the first is lower: 1.34 for the first, 2.01 for the second.

Compared with AGUUGACGACGGGAGCUCCAGCACAGUGAAAUCAACAGAAGGGCAGAGCAA [C6A U7C C9A U10C G33C G34A], AGUUGACGACGGGAGCUCCAGCACAGUGAAAUCUACAGAAGGGCAGAGCAA [C6A U7C C9A U10C G33C G34U] is higher in “exon inclusion enrichment index” value: 2.31 for the first, 2.34 for the second.

Going from AGUUGACGACGGGAGCUCCAGCACAGUGAAAUCGACAGAAGGGCAGAGCAA [C6A U7C C9A U10C G33C] to AGUUGACGACGGGAGCUCCAGCACAGUGAAAUAGACAGAAGGGCAGAGCAA [C6A U7C C9A U10C G33A], the “exon inclusion enrichment index” value falls from 3.45 to 0.648.

Going from AGUUGACGACGGGAGCUCCAGCACAGUGAAAUUGACAGAAGGGCAGAGCAA [C6A U7C C9A U10C G33U] to AGUUGACGACGGGAGCUCCAGCACAGUGAAAUAAACAGAAGGGCAGAGCAA [C6A U7C C9A U10C G33A G34A], the “exon inclusion enrichment index” value falls from 1.97 to 0.865.

Compared with AGUUGACGACGGGAGCUCCAGCACAGUGAAAUAUACAGAAGGGCAGAGCAA [C6A U7C C9A U10C G33A G34U], AGUUGACGACGGGAGCUCCAGCACAGUGAAAUACACAGAAGGGCAGAGCAA [C6A U7C C9A U10C G33A G34C] is higher in “exon inclusion enrichment index” value: 0.964 for the first, 1.06 for the second.

Going from AGUUGACGACGGGAGCUCCAGCACAACGAAAUGGACAGAAGGGCAGAGCAA [C6A U7C C9A U10C G26A U27C] to AGUUGACGACGGGAGCUCCAGCACAAGGAAAUGGACAGAAGGGCAGAGCAA [C6A U7C C9A U10C G26A U27G], the “exon inclusion enrichment index” value falls from 4.65 to 3.54.

Compared with AGUUGACGACGGGAGCUCCAGCACAAAGAAAUGGACAGAAGGGCAGAGCAA [C6A U7C C9A U10C G26A U27A], AGUUGACGACGGGAGCUCCAGCACACCGAAAUGGACAGAAGGGCAGAGCAA [C6A U7C C9A U10C G26C U27C] is higher in “exon inclusion enrichment index” value: 2.91 for the first, 4.37 for the second.

Compared with AGUUGACGACGGGAGCUCCAGCACACGGAAAUGGACAGAAGGGCAGAGCAA [C6A U7C C9A U10C G26C U27G], AGUUGACGACGGGAGCUCCAGCACACAGAAAUGGACAGAAGGGCAGAGCAA [C6A U7C C9A U10C G26C U27A] is lower in “exon inclusion enrichment index” value: 3.92 for the first, 3.61 for the second.

First: AGUUGACGACGGGAGCUCCAUUACAGUGAAAUGGACAGAAGGGCAGAGCAA [C6A U7C C9A U10C G21U C22U]
Second: AGUUGACGACGGGAGCUCCAUAACAGUGAAAUGGACAGAAGGGCAGAGCAA [C6A U7C C9A U10C G21U C22A]
The “exon inclusion enrichment index” value of the first is lower: 1.78 for the first, 2.02 for the second.

First: AGUUGACGACGGGAGCUCCAUGACAGUGAAAUGGACAGAAGGGCAGAGCAA [C6A U7C C9A U10C G21U C22G]
Second: AGUUGACGACGGGAGCUCCAGCACAGUCUAAUGGACAGAAGGGCAGAGCAA [C6A U7C C9A U10C G28C A29U]
The “exon inclusion enrichment index” value of the first is higher: 3.54 for the first, 2.34 for the second.

First: AGUUGACGACGGGAGCUCCAGCACAGUCGAAUGGACAGAAGGGCAGAGCAA [C6A U7C C9A U10C G28C A29G]
Second: AGUUGACGACGGGAGCUCCAGCACAGUCCAAUGGACAGAAGGGCAGAGCAA [C6A U7C C9A U10C G28C A29C]
The “exon inclusion enrichment index” value of the first is higher: 3.91 for the first, 2.62 for the second.

Going from AGUUGACGACGGGAGCUCCAGCACAGUAGAAUGGACAGAAGGGCAGAGCAA [C6A U7C C9A U10C G28A A29G] to AGUUGACGACGGGAGCUCCAGCACAGUAUAAUGGACAGAAGGGCAGAGCAA [C6A U7C C9A U10C G28A A29U], the “exon inclusion enrichment index” value falls from 1.98 to 1.29.

For AGUUGACGACGGGAGCUCCAGCACAGUACAAUGGACAGAAGGGCAGAGCAA [C6A U7C C9A U10C G28A A29C], the “exon inclusion enrichment index” value was 2.55.
